Measured values reported in PMC4937304.
Values joined by “and” are separate entries in the source; they are usually repeats but may differ in a detail not shown here. Identical values can stand only once.

Target: Snf1 (wild type) (S. cerevisiae (endogenous in yeast)) (UniProt P06782)
Assay: pull-down

Chain of UniProt P06782 (P06782 whole entry): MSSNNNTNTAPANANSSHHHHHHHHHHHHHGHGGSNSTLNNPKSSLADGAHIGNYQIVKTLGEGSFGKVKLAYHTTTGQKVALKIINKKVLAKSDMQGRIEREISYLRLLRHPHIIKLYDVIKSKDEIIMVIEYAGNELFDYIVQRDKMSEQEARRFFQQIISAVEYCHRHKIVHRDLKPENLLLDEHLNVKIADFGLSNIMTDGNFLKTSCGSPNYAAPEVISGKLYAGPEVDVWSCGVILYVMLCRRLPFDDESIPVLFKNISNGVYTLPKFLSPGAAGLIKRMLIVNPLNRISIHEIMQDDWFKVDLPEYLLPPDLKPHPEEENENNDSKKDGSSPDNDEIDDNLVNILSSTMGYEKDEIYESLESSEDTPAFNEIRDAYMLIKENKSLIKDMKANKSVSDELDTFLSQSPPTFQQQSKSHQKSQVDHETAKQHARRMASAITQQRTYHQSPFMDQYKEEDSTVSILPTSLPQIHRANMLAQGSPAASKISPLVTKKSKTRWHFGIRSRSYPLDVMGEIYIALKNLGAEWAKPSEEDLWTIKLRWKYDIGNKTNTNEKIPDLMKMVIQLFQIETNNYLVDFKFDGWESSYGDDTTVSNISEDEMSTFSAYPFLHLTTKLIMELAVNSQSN

- percent of Snf1 bound to Bmh: 30% and 50%
Substance: Bmh (Bmh1 and Bmh2, collectively) (from UniProt P29311 1-267) (natural protein)
